Laboratory results as given in ChEMBL document CHEMBL1135342, “Synthesis and evaluation of thymidine-5'-O-monophosphate analogues as inhibitors of Mycobacterium tuberculosis thymidylate kinase” (Bioorg Med Chem Lett, 2002).

Legend:
[1] = substrate: O=c1[nH]c(=O)n([C@H]2C[C@H](O)[C@@H](COP(=O)(O)O)O2)cc1F; experiment: (§1) Compound was tested for binding affinity against Mycobacterium tuberculosis thymidine monophosphate kinase
[2] = substrate: O=c1[nH]c(=O)n([C@H]2C[C@H](O)[C@@H](COP(=O)(O)O)O2)cc1I; experiment: as §1
[3] = substrate: Cc1cn([C@H]2C[C@H](O)[C@@H](COP(=O)(O)O)O2)c(=O)[nH]c1=O; experiment: as §1
[4] = substrate: Cc1cn([C@H]2C[C@H](F)[C@@H](COP(=O)(O)O)O2)c(=O)[nH]c1=O; experiment: as §1
[5] = substrate: O=c1ccn([C@H]2C[C@H](O)[C@@H](COP(=O)(O)O)O2)c(=O)[nH]1; experiment: as §1
[6] = substrate: Cc1cn(-c2ccc(COP(=O)(O)O)o2)c(=O)[nH]c1=O; experiment: as §1
[7] = substrate: O=c1[nH]c(=O)n([C@H]2C[C@H](O)[C@@H](COP(=O)(O)O)O2)cc1Br; experiment: as §1

B1: Thymidylate kinase (Mycobacterium tuberculosis), P9WKE1 (protein)
chain: MLIAIEGVDGAGKRTLVEKLSGAFRAAGRSVATLAFPRYGQSVAADIAAEALHGEHGDLASSVYAMATLFALDRAGAVHTIQGLCRGYDVVILDRYVASNAAYSAARLHENAAGKAAAWVQRIEFARLGLPKPDWQVLLAVSAELAGERSRGRAQRDPGRARDNYERDAELQQRTGAVYAELAAQGWGGRWLVVGADVDPGRLAATLAPPDVPS
Km [1]: 420 µM | Km [2]: 140 µM | Km [3]: 4.5 µM | Km [4]: 30 µM | Km [5]: 2100 µM | Km [6]: 140 µM | Km [7]: 33 µM
